The numbers were not newly measured in patent US5814460A, “Method for generating and screening useful peptides” (Diatide, Inc., priority 1995, dated 1998), which cites them from elsewhere.

Where two headings read alike, the source gives them in different places.

The target in one series is T1, streptavidin (Streptomyces avidinii, UniProt P22629).
T1 construct: purchased Sigma Chemical Company
As to conditions: read-out: Kd of streptavidin complex.

The target of series [1] is fibrinogen receptor (GpIIb IIIa) (Homo sapiens, UniProt P05106+P08514).
In the next series the target is Angiotensin II Receptor. The conditions noted are these: Table 6.
A further series addresses fibrin polymerization (Homo sapiens, UniProt P02679). As to conditions: literature statement.
The next series addresses human fibrinogen (Homo sapiens, UniProt P02679). The conditions noted are these: read-out: affinities for human fibrinogen.
In the next series the target is Porcine PLA2 (Sus scrofa, UniProt P00592). The conditions noted are these: Table 6.
The target of a further series is Pepsin (hum.) (Homo sapiens, UniProt P0DJD7). The conditions noted are these: Table 6.
For series [2], the target named is Urokinase Receptor (hum.) (Homo sapiens, UniProt Q03405). The conditions noted are these: Table 6.
The target in another series is CD4 (Homo sapiens, UniProt P01730). The conditions noted are these: Table 6.
For a further series, the target named is T2, Gastricsin (hum.) (Homo sapiens, UniProt P20142).
T2 sequence (P20142 60-388): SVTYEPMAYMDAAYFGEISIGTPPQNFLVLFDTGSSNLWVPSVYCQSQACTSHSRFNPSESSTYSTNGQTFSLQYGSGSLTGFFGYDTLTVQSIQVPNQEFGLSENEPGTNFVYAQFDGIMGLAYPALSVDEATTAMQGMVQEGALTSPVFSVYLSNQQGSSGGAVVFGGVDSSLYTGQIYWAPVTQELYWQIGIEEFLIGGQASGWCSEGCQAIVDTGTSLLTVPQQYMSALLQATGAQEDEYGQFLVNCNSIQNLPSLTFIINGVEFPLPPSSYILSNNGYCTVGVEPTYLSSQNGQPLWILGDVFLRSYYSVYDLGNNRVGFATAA
As to conditions: Table 6.

In the next series the target is Calmodulin (Homo sapiens, UniProt P0DP23). The conditions noted are these: Table 6.
Series [3] concerns the target Fibronectin (rat) (human). The conditions noted are these: Table 6.
[4] abbreviates: Table 6, target GpIIb IIa, read-out: Kd.

Chain of fibrin polymerization (P02671 20-629 partner limits assumed): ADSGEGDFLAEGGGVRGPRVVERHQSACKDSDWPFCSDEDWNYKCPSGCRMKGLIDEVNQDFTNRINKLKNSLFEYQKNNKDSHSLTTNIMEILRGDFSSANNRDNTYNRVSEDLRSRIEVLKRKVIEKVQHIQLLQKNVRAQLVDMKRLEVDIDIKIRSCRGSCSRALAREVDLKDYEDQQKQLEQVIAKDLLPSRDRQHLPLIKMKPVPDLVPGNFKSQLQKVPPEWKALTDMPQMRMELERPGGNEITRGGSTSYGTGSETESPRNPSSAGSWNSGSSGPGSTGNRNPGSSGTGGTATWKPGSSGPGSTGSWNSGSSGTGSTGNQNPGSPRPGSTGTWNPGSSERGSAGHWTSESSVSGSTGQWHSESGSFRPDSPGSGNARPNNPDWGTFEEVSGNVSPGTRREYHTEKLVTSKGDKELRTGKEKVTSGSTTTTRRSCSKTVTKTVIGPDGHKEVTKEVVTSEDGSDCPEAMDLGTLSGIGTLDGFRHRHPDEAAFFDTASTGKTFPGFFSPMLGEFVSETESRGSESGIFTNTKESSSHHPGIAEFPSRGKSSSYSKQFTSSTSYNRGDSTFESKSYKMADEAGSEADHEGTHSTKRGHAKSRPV
Chain of fibrin polymerization (P02675 31-491 partner): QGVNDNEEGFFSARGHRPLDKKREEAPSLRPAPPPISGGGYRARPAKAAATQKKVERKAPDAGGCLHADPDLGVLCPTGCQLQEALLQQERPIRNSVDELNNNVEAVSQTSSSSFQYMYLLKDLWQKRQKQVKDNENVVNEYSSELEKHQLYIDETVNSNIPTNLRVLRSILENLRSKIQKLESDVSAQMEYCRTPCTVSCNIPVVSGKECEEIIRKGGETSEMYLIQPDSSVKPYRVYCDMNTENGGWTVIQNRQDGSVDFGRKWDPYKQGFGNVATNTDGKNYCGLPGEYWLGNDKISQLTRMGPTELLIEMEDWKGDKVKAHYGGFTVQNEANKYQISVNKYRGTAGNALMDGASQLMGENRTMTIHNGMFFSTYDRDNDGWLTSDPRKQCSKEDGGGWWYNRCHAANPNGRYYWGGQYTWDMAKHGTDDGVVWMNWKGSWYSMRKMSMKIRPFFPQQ
Chain of fibrin polymerization (P02679 27-433 limits assumed): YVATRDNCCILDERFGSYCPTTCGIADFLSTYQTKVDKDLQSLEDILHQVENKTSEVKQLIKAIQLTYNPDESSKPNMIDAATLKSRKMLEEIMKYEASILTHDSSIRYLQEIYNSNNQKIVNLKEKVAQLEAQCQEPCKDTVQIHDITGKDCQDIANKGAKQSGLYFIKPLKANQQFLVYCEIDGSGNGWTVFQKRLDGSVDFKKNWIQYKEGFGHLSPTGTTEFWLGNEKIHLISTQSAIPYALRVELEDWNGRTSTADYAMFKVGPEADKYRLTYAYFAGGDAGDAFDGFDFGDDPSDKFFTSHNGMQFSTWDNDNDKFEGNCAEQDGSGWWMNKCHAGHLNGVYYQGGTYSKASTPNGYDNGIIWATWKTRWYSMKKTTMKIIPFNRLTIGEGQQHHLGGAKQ
Chain of human fibrinogen (P02671 20-629 partner limits assumed): as the sequence (P02671 20-629 partner limits assumed) above
Chain of human fibrinogen (P02675 31-491 partner): as the sequence (P02675 31-491 partner) above
Chain of human fibrinogen (P02679 27-433 limits assumed): as the sequence (P02679 27-433 limits assumed) above
Chain of Fibronectin (rat) (human) (P04937 1540-1633 limits assumed): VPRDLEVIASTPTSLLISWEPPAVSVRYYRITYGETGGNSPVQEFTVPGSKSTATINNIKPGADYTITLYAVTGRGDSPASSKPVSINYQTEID
Chain of Urokinase Receptor (hum.) (Q03405 23-335): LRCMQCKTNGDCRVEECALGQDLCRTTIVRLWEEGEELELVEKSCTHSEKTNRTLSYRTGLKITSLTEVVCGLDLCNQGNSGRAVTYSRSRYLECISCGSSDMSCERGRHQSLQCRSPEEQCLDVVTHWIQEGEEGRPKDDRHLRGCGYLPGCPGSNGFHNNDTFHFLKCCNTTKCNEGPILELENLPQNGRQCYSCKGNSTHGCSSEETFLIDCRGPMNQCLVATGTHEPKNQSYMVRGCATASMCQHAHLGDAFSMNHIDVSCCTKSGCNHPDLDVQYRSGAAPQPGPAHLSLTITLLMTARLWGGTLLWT
Chain of Pepsin (hum.) (P0DJD7 63-388): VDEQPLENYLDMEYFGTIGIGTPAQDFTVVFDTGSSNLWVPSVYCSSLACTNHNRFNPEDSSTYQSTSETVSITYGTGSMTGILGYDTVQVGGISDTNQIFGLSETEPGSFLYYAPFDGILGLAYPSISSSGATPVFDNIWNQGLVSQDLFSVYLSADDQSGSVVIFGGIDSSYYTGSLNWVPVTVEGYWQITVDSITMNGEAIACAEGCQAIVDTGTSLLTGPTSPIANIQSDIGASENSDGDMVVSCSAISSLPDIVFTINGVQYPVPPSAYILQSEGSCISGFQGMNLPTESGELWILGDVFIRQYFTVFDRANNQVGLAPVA
T1 sequence (P22629 25-183): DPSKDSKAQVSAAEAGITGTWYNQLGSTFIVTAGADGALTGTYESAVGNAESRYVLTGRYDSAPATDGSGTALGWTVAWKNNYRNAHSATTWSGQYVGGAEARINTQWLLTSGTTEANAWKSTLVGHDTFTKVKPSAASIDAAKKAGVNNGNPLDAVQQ
Chain of Porcine PLA2 (P00592 23-146): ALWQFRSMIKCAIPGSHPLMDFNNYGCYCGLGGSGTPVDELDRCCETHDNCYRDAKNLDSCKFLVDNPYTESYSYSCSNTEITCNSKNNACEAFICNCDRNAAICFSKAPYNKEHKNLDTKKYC

As to `N=C1N[C@H]2[C@H](CS[C@H]2CCCCC(=O)O)N1` [imminobiotin], on streptavidin, the Kd was approximately 10 nM.
On to Arg-Gly-Asp-Trp (RGDW), for which the Kd is 1000 nM in series [1] (setting [4]) and 5000 nM in series [1] (example of a lead peptide, read-out: affinity (Kd) for fibrinogen receptor).
As for EGVYVHPV, the Kd on Angiotensin II Receptor was 100 nM.
Regarding GPRP, at fibrin polymerization, the “inhibition of fibrin polymerization” value is reported as “inhibit fibrin polymerization”.
As to “GPRV: synthetic peptide beginning with GPR that binds fibrinogen”, the “inhibition of fibrin polymerization” value with fibrin polymerization is “inhibit fibrin polymerization”. Besides, in the series with human fibrinogen, the Kd was 100 µM.
“GRGDSP: lead peptide (Fb) for GpIIb IIIa”: the Kd in [1] (setting [4]) was 1000 nM.
Take Gly-Pro-Arg [GPR]: on fibrin polymerization, the “inhibition of fibrin polymerization” value was “inhibit fibrin polymerization”. Further, on human fibrinogen, the Kd was 50 µM.
On to MLFILIKRSRHF, for which, in the series with Porcine PLA2, the Kd is 10 µM.
In the case of “RGDY: RGD containing peptide binding GpIIb IIIa”, the Kd in [1] (setting [4]) is 1000 nM.
RIFLKRMPSIR: the Kd with Pepsin (hum.) is 1000 nM.
As to “TCVXNKYFSNIHW: lead peptide (urokinase) for urokinase receptor”, the Kd in series [2] was 1000 nM.
Regarding TNYT: lead peptide for CD4, the Kd in the series with CD4 was 1000 nM.
For TTFKRIFLKRMPS, the Kd with Gastricsin (hum.) is 1000 nM.
As for VAITVLVK, the Kd in the series with Calmodulin was 1000 nM.
On to “WTVPTA: lead peptide, antisense of GAVSTA RGD sequence, for fibronectin”, for which the Kd in series [3] is 1000 nM.
